From PMC4489720

Tests used:
[1] = target: His-tagged recombinant full-length HB3VAR06 (FV6) (P. falciparum HB3); experiment: SEC; Superdex 200 10/30 HR, 50 mM Tris-HCl, 150 mM NaCl, pH 7.4; α2M (150 μg) alone and with molar ratios of FV6, incubated on ice 15 min; 0.5 mL/min, A280
[2] = target: His-tagged recombinant full-length HB3VAR06 (FV6) (P. falciparum HB3); experiment: ELISA; MaxiSorp plates coated with recombinant PfEMP1 constructs (18 nM, overnight, 4°C); blocked in TSM buffer with 1% Ig-free BSA; α2M or α2M-MA (10 nM; titrated in Fig 2A); detected with anti-α2M antibodies

Binder | stoichiometry N [1] [FV6 per α2M] | amount bound relative to α2M-MA (fold) [2] [fold] | stoichiometry N (FV6 per α2M-MA) [1]
α2-macroglobulin (α2M), native (natural protein) SVSGKPQYMVLVPSLLHTETTEKGCVLLSYLNETVTVSASLESVRGNRSLFTDLEAENDVLHCVAFAVPKSSSNEEVMFLTVQVKGPTQEFKKRTTVMVKNEDSLVFVQTDKSIYKPGQTVKFRVVSMDENFHPLNELIPLVYIQDPKGNRIAQWQSFQLEGGLKQFSFPLSSEPFQGSYKVVVQKKSGGRTEHPFTVEEFVLPKFEVQVTVPKIITILEEEMNVSVCGLYTYGKPVPGHVTVSICRKYSDASDCHGEDSQAFCEKFSGQLNSHGCFYQQVKTKVFQLKRKEYEMKLHTEAQIQEEGTVVELTGRQSSEITRTITKLSFVKVDSHFRQGIPFFGQVRLVDGKGVPIPNKVIFIRGNEANYYSNATTDEHGLVQFSINTTNVMGTSLTVRVNYKDRSPCYGYQWVSEEHEEAHHTAYLVFSPSKSFVHLEPMSHELPCGHTQTVQAHYILNGGTLLGLKKLSFYYLIMAKGGIVRTGTHGLLVKQEDMKGHFSISIPVKSDIAPVARLLIYAVLPTGDVIGDSAKYDVENCLANKVDLSFSPSQSLPASHAHLRVTAAPQSVCALRAVDQSVLLMKPDAELSASSVYNLLPEKDLTGFPGPLNDQDNEDCINRHNVYINGITYTPVSSTNEKDMYSFLEDMGLKAFTNSKIRKPKMCPQLQQYEMHGPEGLRVGFYESDVMGRGHARLVHVEEPHTETVRKYFPETWIWDLVVVNSAGVAEVGVTVPDTITEWKAGAFCLSEDAGLGISSTASLRAFQPFFVELTMPYSVIRGEAFTLKATVLNYLPKCIRVSVQLEASPAFLAVPVEKEQAPHCICANGRQTVSWAVTPKSLGNVNFTVSAEALESQELCGTEVPSVPEHGRKDTVIKPLLVEPEGLEKETTFNSLLCPSGGEVSEELSLKLPPNVVEESARASVSVLGDILGSAMQNTQNLLQMPYGCGEQNMVLFAPNIYVLDYLNETQQLTPEIKSKAIGYLNTGYQRQLNYKHYDGSYSTFGERYGRNQGNTWLTAFVLKTFAQARAYIFIDEAHITQALIWLSQRQKDNGCFRSSGSLLNNAIKGGVEDEVTLSAYITIALLEIPLTVTHPVVRNALFCLESAWKTAQEGDHGSHVYTKALLAYAFALAGNQDKRKEVLKSLNEEAVKKDNSVHWERPQKPKAPVGHFYEPQAPSAEVEMTSYVLLAYLTAQPAPTSEDLTSATNIVKWITKQQNAQGGFSSTQDTVVALHALSKYGAATFTRTGKAAQVTIQSSGTFSSKFQVDNNNRLLLQQVSLPELPGEYSMKVTGEGCVYLQTSLKYNILPEKEEFPFALGVQTLPQTCDEPKAHTSFQISLSVSYTGSRSASNMAIVDVKMVSGFIPLKPTVKMLERSNHVSRTEVSSNHVLIYLDKVSNQTLSLFFTVLQDVPVRDLKPAIVKVYDYYETDEFAIAEYNAPCSKDLGNA | > 4 | 4 | –
methylamine-activated α2-macroglobulin (α2M-MA) (natural protein, internal thioester cleaved by methylamine (MA-activated)) SVSGKPQYMVLVPSLLHTETTEKGCVLLSYLNETVTVSASLESVRGNRSLFTDLEAENDVLHCVAFAVPKSSSNEEVMFLTVQVKGPTQEFKKRTTVMVKNEDSLVFVQTDKSIYKPGQTVKFRVVSMDENFHPLNELIPLVYIQDPKGNRIAQWQSFQLEGGLKQFSFPLSSEPFQGSYKVVVQKKSGGRTEHPFTVEEFVLPKFEVQVTVPKIITILEEEMNVSVCGLYTYGKPVPGHVTVSICRKYSDASDCHGEDSQAFCEKFSGQLNSHGCFYQQVKTKVFQLKRKEYEMKLHTEAQIQEEGTVVELTGRQSSEITRTITKLSFVKVDSHFRQGIPFFGQVRLVDGKGVPIPNKVIFIRGNEANYYSNATTDEHGLVQFSINTTNVMGTSLTVRVNYKDRSPCYGYQWVSEEHEEAHHTAYLVFSPSKSFVHLEPMSHELPCGHTQTVQAHYILNGGTLLGLKKLSFYYLIMAKGGIVRTGTHGLLVKQEDMKGHFSISIPVKSDIAPVARLLIYAVLPTGDVIGDSAKYDVENCLANKVDLSFSPSQSLPASHAHLRVTAAPQSVCALRAVDQSVLLMKPDAELSASSVYNLLPEKDLTGFPGPLNDQDNEDCINRHNVYINGITYTPVSSTNEKDMYSFLEDMGLKAFTNSKIRKPKMCPQLQQYEMHGPEGLRVGFYESDVMGRGHARLVHVEEPHTETVRKYFPETWIWDLVVVNSAGVAEVGVTVPDTITEWKAGAFCLSEDAGLGISSTASLRAFQPFFVELTMPYSVIRGEAFTLKATVLNYLPKCIRVSVQLEASPAFLAVPVEKEQAPHCICANGRQTVSWAVTPKSLGNVNFTVSAEALESQELCGTEVPSVPEHGRKDTVIKPLLVEPEGLEKETTFNSLLCPSGGEVSEELSLKLPPNVVEESARASVSVLGDILGSAMQNTQNLLQMPYGCGEQNMVLFAPNIYVLDYLNETQQLTPEIKSKAIGYLNTGYQRQLNYKHYDGSYSTFGERYGRNQGNTWLTAFVLKTFAQARAYIFIDEAHITQALIWLSQRQKDNGCFRSSGSLLNNAIKGGVEDEVTLSAYITIALLEIPLTVTHPVVRNALFCLESAWKTAQEGDHGSHVYTKALLAYAFALAGNQDKRKEVLKSLNEEAVKKDNSVHWERPQKPKAPVGHFYEPQAPSAEVEMTSYVLLAYLTAQPAPTSEDLTSATNIVKWITKQQNAQGGFSSTQDTVVALHALSKYGAATFTRTGKAAQVTIQSSGTFSSKFQVDNNNRLLLQQVSLPELPGEYSMKVTGEGCVYLQTSLKYNILPEKEEFPFALGVQTLPQTCDEPKAHTSFQISLSVSYTGSRSASNMAIVDVKMVSGFIPLKPTVKMLERSNHVSRTEVSSNHVLIYLDKVSNQTLSLFFTVLQDVPVRDLKPAIVKVYDYYETDEFAIAEYNAPCSKDLGNA | – | – | 1
